# Experimental data published in patent US20090099029.
# T1: Bovine, dephosphorylated, Myelin Basic Protein (MBP), P02687
# T1 chain: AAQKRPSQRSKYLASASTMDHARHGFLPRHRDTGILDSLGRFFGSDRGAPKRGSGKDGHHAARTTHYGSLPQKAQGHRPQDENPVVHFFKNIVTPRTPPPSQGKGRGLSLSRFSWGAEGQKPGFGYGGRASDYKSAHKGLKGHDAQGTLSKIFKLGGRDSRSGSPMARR
# Biological target: T1, Bovine, dephosphorylated, Myelin Basic …
row,Protein,MBP Kinase Activity
1,MUSK (protein) CCRRRKQWKNKKRESAAVTLTTLPSELLLDRLHPNPMYQRMPLLLNPKLLSLEYPRNNIEYVRDIGEGAFGRVFQARAPGLLPYEPFTMVAVKMLKEEASADMQADFQREAALMAEFDNPNIVKLLGVCAVGKPMCLLFEYMAYGDLNEFLRSMSPHTVCSLSHSDLSMRAQVSSPGPPPLSCAEQLCIARQVAAGMAYLSERKFVHRDLATRNCLVGENMVVKIADFGLSRNIYSADYYKANENDAIPIRWMPPESIFYNRYTTESDVWAYGVVLWEIFSYGLQPYYGMAHEEVIYYVRDGNILSCPENCPVELYNLMRLCWSKLPADRPSFTSIHRILERMCERAEGTVSV,Negative
2,PDGFRA (protein) KQKPRYEIRWRVIESISPDGHEYIYVDPMQLPYDSRWEFPRDGLVLGRVLGSGAFGKVVEGTAYGLSRSQPVMKVAVKMLKPTARSSEKQALMSELKIMTHLGPHLNIVNLLGACTKSGPIYIITEYCFYGDLVNYLHKNRDSFLSHHPEKPKKELDIFGLNPADESTRSYVILSFENNGDYMDMKQADTTQYVPMLERKEVSKYSDIQRSLYDRPASYKKKSMLDSEVKNLLSDDNSEGLTLLDLLSFTYQVARGMEFLASKNCVHRDLAARNVLLAQGKIVKICDFGLARDIMHDSNYVSKGSTFLPVKWMAPESIFDNLYTTLSDVWSYGILLWEIFSLGGTPYPGMMVDSTFYNKIKSGYRMAKPDHATSEVYEIMVKCWNSEPEKRPSFYHLSEIVENLLPGQYKKSYEKIHLDFLKSDHPAVARMRVDSDNAYIGVTYKNEEDKLKDWEGGLDEQRLSADSGYIIPLPDIDPVPEEEDLGKRNRHSSQTSEESAIETGSSSSTFIKREDETIEDIDMMDDIGIDSSDLVEDSFL,Strong
3,"PDGFRA, T674I (protein) KQKPRYEIRWRVIESISPDGHEYIYVDPMQLPYDSRWEFPRDGLVLGRVLGSGAFGKVVEGTAYGLSRSQPVMKVAVKMLKPTARSSEKQALMSELKIMTHLGPHLNIVNLLGACTKSGPIYIIIEYCFYGDLVNYLHKNRDSFLSHHPEKPKKELDIFGLNPADESTRSYVILSFENNGDYMDMKQADTTQYVPMLERKEVSKYSDIQRSLYDRPASYKKKSMLDSEVKNLLSDDNSEGLTLLDLLSFTYQVARGMEFLASKNCVHRDLAARNVLLAQGKIVKICDFGLARDIMHDSNYVSKGSTFLPVKWMAPESIFDNLYTTLSDVWSYGILLWEIFSLGGTPYPGMMVDSTFYNKIKSGYRMAKPDHATSEVYEIMVKCWNSEPEKRPSFYHLSEIVENLLPGQYKKSYEKIHLDFLKSDHPAVARMRVDSDNAYIGVTYKNEEDKLKDWEGGLDEQRLSADSGYIIPLPDIDPVPEEEDLGKRNRHSSQTSEESAIETGSSSSTFIKREDETIEDIDMMDDIGIDSSDLVEDSFL",Negative
4,PDGFRB (protein) MLWQKKPRYEIRWKVIESVSSDGHEYIYVDPMQLPYDSTWELPRDQLVLGRTLGSGAFGQVVEATAHGLSHSQATMKVAVKMLKSTARSSEKQALMSELKIMSHLGPHLNVVNLLGACTKGGPIYIITEYCRYGDLVDYLHRNKHTFLQHHSDKRRPPSAELYSNALPVGLPLPSHVSLTGESDGGYMDMSKDESVDYVPMLDMKGDVKYADIESSNYMAPYDNYVPSAPERTCRATLINESPVLSYMDLVGFSYQVANGMEFLASKNCVHRDLAARNVLICEGKLVKICDFGLARDIMRDSNYISKGSTFLPLKWMAPESIFNSLYTTLSDVWSFGILLWEIFTLGGTPYPELPMNEQFYNAIKRGYRMAQPAHASDEIYEIMQKCWEEKFEIRPPFSQLVLLLERLLGEGYKKKYQQVDEEFLRSDHPAILRSQARLPGFHGLRSPLDTSSVLYTAVQPNEGDNDYIIPLPDPKPEVADEGPLEGSPSLASSTLNEVNTSSTISCDSPLEPQDEPEPEPQLELQVEPEPELEQLPDSGCPAPRAEAEDSFL,Strong
5,RET (protein) HCYHKFAHKPPISSAEMTFRRPAQAFPVSYSSSGARRPSLDSMENQVSVDAFKILEDPKWEFPRKNLVLGKTLGEGEFGKVVKATAFHLKGRAGYTTVAVKMLKENASPSELRDLLSEFNVLKQVNHPHVIKLYGACSQDGPLLLIVEYAKYGSLRGFLRESRKVGPGYLGSGGSRNSSSLDHPDERALTMGDLISFAWQISQGMQYLAEMKLVHRDLAARNILVAEGRKMKISDFGLSRDVYEEDSYVKRSQGRIPVKWMAIESLFDHIYTTQSDVWSFGVLLWEIVTLGGNPYPGIPPERLFNLLKTGHRMERPDNCSEEMYRLMLQCWKQEPDKRPVFADISKDLEKMMVKRRDYLDLAASTPSDSLIYDDGLSEEETPLVDCNNAPLPRALPSTWIENKLYGMSDPNWPGESPVPLTRADGTNTGFPRYPNDSVYANWMLSPSAAKLMDTFDS,Strong
6,CSF1R (protein) YKYKQKPKYQVRWKIIESYEGNSYTFIDPTQLPYNEKWEFPRNNLQFGKTLGAGAFGKVVEATAFGLGKEDAVLKVAVKMLKSTAHADEKEALMSELKIMSHLGQHENIVNLLGACTHGGPVLVITEYCCYGDLLNFLRRKAEAMLGPSLSPGQDPEGGVDYKNIHLEKKYVRRDSGFSSQGVDTYVEMRPVSTSSNDSFSEQDLDKEDGRPLELRDLLHFSSQVAQGMAFLASKNCIHRDVAARNVLLTNGHVAKIGDFGLARDIMNDSNYIVKGNARLPVKWMAPESIFDCVYTVQSDVWSYGILLWEIFSLGLNPYPGILVNSKFYKLVKDGYQMAQPAFAPKNIYSIMQACWALEPTHRPTFQQICSFLQEQAQEDRRERDYTNLPSSSRSGGSGSSSSELEEESSSEHLTCCEQGDIAQPLLQPNNYQFC,Strong
7,ROS1 (protein) HRRLKNQKSAKEGVTVLINEDKELAELRGLAAGVGLANACYAIHTLPTQEEIENLPAFPREKLTLRLLLGSGAFGEVYEGTAVDILGVGSGEIKVAVKTLKKGSTDQEKIEFLKEAHLMSKFNHPNILKQLGVCLLNEPQYIILELMEGGDLLTYLRKARMATFYGPLLTLVDLVDLCVDISKGCVYLERMHFIHRDLAARNCLVSVKDYTSPRIVKIGDFGLARDIYKNDYYRKRGEGLLPVRWMAPESLMDGIFTTQSDVWSFGILIWEILTLGHQPYPAHSNLDVLNYVQTGGRLEPPRNCPDDLWNLMTQCWAQEPDQRPTFHRIQDQLQLFRNFFLNSIYKSRDEANNSGVINESFEGEDGDVICLNSDDIMPVALMETKNREGLNYMVLATECGQGEEKSEGPLGSQESESCGLRKEEKEPHADKDFCQEKQVAYCPSGKPEGLNYACLTHSGYGDGSD,Strong
8,TYRO3 (protein) LRKRRKETRFGQAFDSVMARGEPAVHFRAARSFNRERPERIEATLDSLGISDELKEKLEDVLIPEQQFTLGRMLGKGEFGSVREAQLKQEDGSFVKVAVKMLKADIIASSDIEEFLREAACMKEFDHPHVAKLVGVSLRSRAKGRLPIPMVILPFMKHGDLHAFLLASRIGENPFNLPLQTLIRFMVDIACGMEYLSSRNFIHRDLAARNCMLAEDMTVCVADFGLSRKIYSGDYYRQGCASKLPVKWLALESLADNLYTVQSDVWAFGVTMWEIMTRGQTPYAGIENAEIYNYLIGGNRLKQPPECMEDVYDLMYQCWSADPKQRPSFTCLRMELENILGQLSVLSASQDPLYINIERAEEPTAGGSLELPGRDQPYSGAGDGSGMGAVGGTPSDCRYILTPGGLAEQPGQAEHQPESPLNETQRLLLLQQGLLPHSSC,Strong
9,ABL2(ARG) (protein) MGQQVGRVGEAPGLQQPQPRGIRGSSAARPSGRRRDPAGRTTETGFNIFTQHDHFASCVEDGFEGDKTGGSSPEALHRPYGCDVEPQALNEAIRWSSKENLLGATESDPNLFVALYDFVASGDNTLSITKGEKLRVLGYNQNGEWSEVRSKNGQGWVPSNYITPVNSLEKHSWYHGPVSRSAAEYLLSSLINGSFLVRESESSPGQLSISLRYEGRVYHYRINTTADGKVYVTAESRFSTLAELVHHHSTVADGLVTTLHYPAPKCNKPTVYGVSPIHDKWEMERTDITMKHKLGGGQYGEVYVGVWKKYSLTVAVKTLKEDTMEVEEFLKEAAVMKEIKHPNLVQLLGVCTLEPPFYIVTEYMPYGNLLDYLRECNREEVTAVVLLYMATQISSAMEYLEKKNFIHRDLAARNCLVGENHVVKVADFGLSRLMTGDTYTAHAGAKFPIKWTAPESLAYNTFSIKSDVWAFGVLLWEIATYGMSPYPGIDLSQVYDLLEKGYRMEQPEGCPPKVYELMRACWKWSPADRPSFAETHQAFETMFHDSSISEEVAEELGRAASSSSVVPYLPRLPILPSKTRTLKKQVENKENIEGAQDATENSASSLAPGFIRGAQASSGSPALPRKQRDKSPSSLLEDAKETCFTRDRKGGFFSSFMKKRNAPTPPKRSSSFREMENQPHKKYELTGNFSSVASLQHADGFSFTPAQQEANLVPPKCYGGSFAQRNLCNDDGGGGGGSGTAGGGWSGITGFFTPRLIKKTLGLRAGKPTASDDTSKPFPRSNSTSSMSSGLPEQDRMAMTLPRNCQRSKLQLERTVSTSSQPEENVDRANDMLPKKSEESAAPSRERPKAKLLPRGATALPLRTPSGDLAITEKDPPGVGVAGVAAAPKGKEKNGGARLGMAGVPEDGEQPGWPSPAKAAPVLPTTHNHKVPVLISPTLKHTPADVQLIGTDSQGNKFKLLSEHQVTSSGDKDRPRRVKPKCAPPPPPVMRLLQHPSICSDPTEEPTALTAGQSTSETQEGGKKAALGAVPISGKAGRPVMPPPQVPLPTSSISPAKMANGTAGTKVALRKTKQAAEKISADKISKEALLECADLLSSALTEPVPNSQLVDTGHQLLDYCSGYVDCIPQTRNKFAFREAVSKLELSLQELQVSSAAAGVPGTNPVLNNLLSCVQEISDVVQR,Weak
10,BMX (protein) MDTKSILEELLLKRSQQKKKMSPNNYKERLFVLTKTNLSYYEYDKMKRGSRKGSIEIKKIRCVEKVNLEEQTPVERQYPFQIVYKDGLLYVYASNEESRSQWLKALQKEIRGNPHLLVKYHSGFFVDGKFLCCQQSCKAAPGCTLWEAYANLHTAVNEEKHRVPTFPDRVLKIPRAVPVLKMDAPSSSTTLAQYDNESKKNYGSQPPSSSTSLAQYDSNSKKIYGSQPNFNMQYIPREDFPDWWQVRKLKSSSSSEDVASSNQKERNVNHTTSKISWEFPESSSSEEEENLDDYDWFAGNISRSQSEQLLRQKGKEGAFMVRNSSQVGMYTVSLFSKAVNDKKGTVKHYHVHTNAENKLYLAENYCFDSIPKLIHYHQHNSAGMITRLRHPVSTKANKVPDSVSLGNGIWELKREEITLLKELGSGQFGVVQLGKWKGQYDVAVKMIKEGSMSEDEFFQEAQTMMKLSHPKLVKFYGVCSKEYPIYIVTEYISNGCLLNYLRSHGKGLEPSQLLEMCYDVCEGMAFLESHQFIHRDLAARNCLVDRDLCVKVSDFGMTRYVLDDQYVSSVGTKFPVKWSAPEVFHYFKYSSKSDVWAFGILMWEVFSLGKQPYDLYDNSQVVLKVSQGHRLYRPHLASDTIYQIMYSCWHELPEKRPTFQQLLSSIEPLREKDKH,Strong
